Test results from paper PMC7853477.

Key:
[1] = molecular target: SARS-CoV-2 S protein receptor-binding domain RBDv1 (319–541) with C-terminal c-myc and 6xHis tags (SARS-CoV-2) (UniProt P0DTC2); experiment: non-reducing SDS-PAGE with gel densitometry
[2] = molecular target: SARS-CoV-2 S protein receptor-binding domain RBDv2 (320–537) with C-terminal c-myc and 10xHis tags (SARS-CoV-2) (UniProt P0DTC2); experiment: non-reducing SDS-PAGE with gel densitometry

Substance | stoichiometry N [1] | percent covalent dimer [2] | stoichiometry N [2]
SARS-CoV-2 S protein receptor-binding domain RBDv1 (319–541) with C-terminal c-myc and 6xHis tags (from UniProt P0DTC2 319-541) (domain or fragment) | 2 |  | 
SARS-CoV-2 S protein receptor-binding domain RBDv2 (320–537) with C-terminal c-myc and 10xHis tags (from UniProt P0DTC2 320-537) (domain or fragment) |  | 6% | 2
